In US20230212549A1 (3B PHARMACEUTICALS, published 2023):
Several values for one entry are separate records, joined by “and”; a condition that tells them apart may be missing. Identical values can stand only once. Numbered stars: 1 amine (or outer) side, 2 acyl side, 3 side chain; on linkers, the order of the positions; unused ones are H or OH. Bridge positions count the residues as written; N and C are the ends. Square brackets hold non-standard residues; d marks the D form. Primed or numbered codes have the meaning given here. * marks the point of attachment. tMeBn(LuDOTA-AET) = 1,3,5-trimethylbenzylidene (from 1,3,5-tris(bromomethyl)benzene) bridge with two thioethers to the Cys, its third CH2 carries AET (2-aminoethanethiol, attached through S), whose amine is acylated by DOTA complexing lutet, O=C([O-])CN1CCN(CC(=O)[O-])CCN(CC(=O)NCCSCc2cc(C[*:1])cc(C[*:2])c2)CCN(CC(=O)[O-])CC1.[Lu+3]; tMeBn(DOTA-PP) = 1,3,5-trimethylbenzylidene, two thioethers to Cys, third CH2 bound to one N of piperazine whose other N bears DOTA, O=C(O)CN1CCN(CC(=O)O)CCN(CC(=O)N2CCN(Cc3cc(C[*:1])cc(C[*:2])c3)CC2)CCN(CC(=O)O)CC1; tMeBn(DOTA-AET) = 1,3,5-trimethylbenzylidene (from 1,3,5-tris(bromomethyl)benzene), two thioethers to Cys, third CH2 bears 2-aminoethanethiol via S, its amine acylated by DOTA; Ttds″ = 1,13-diamino-4,7,10-trioxatridecan-succinamic acid spacer, O=C(CCC(=O)[*:2])NCCCOCCOCCOCCCN[*:1]; Ttds = 1,13-diamino-4,7,10-trioxatridecan-succinamic acid, O=C(CCC(=O)[*:2])NCCCOCCOCCOCCCN[*:1]; 3MeBn = 3-Methylbenzylidene (m-xylylene thioether bridge from α,α′-dibromo-m-xylene); Opc = (S)-N-(pyrazinylcarbonyl)-ornithine, O=C(NCCC[C@H](N[*:1])C(=O)[*:2])c1cnccn1; N4Ac = 6-Carboxy-1,4,8,11-tetraazaundecane, an N4-chelator, NCCNCC(CNCCN)C(=O)*; 3MeBn(3) = 3-methylbenzylidene (m-xylylene), from α,α′-dibromo-m-xylene; DOTA = O=C(O)CN1CCN(CC(=O)O)CCN(CC(=O)*)CCN(CC(=O)O)CC1; Pro(trans-4-Ph) = O=C(O)[C@@H]1C[C@@H](c2ccccc2)CN1; Pro(4,4-F2) = O=C(O)[C@@H]1CC(F)(F)CN1; γGlu = O=C(O)[C@H](CCC(=O)[*:2])N[*:1]; mXylylene = c1cc(C[*:1])cc(C[*:2])c1; AF488 = Alexa Fluor 488 label; AGLU′ = not defined here; Nle = CCCC[C@H](N)C(=O)O; Orn = NCCC[C@H](N)C(=O)O; PEG6′ = not defined here; Hexanoyl = CCCCCC(=O)*; Ahx = NCCCCCC(=O)O; GABA = NCCCC(=O)O

Key:
[1] = biological target: Recombinant human FAP (R&D systems, #3715-SE) (human, UniProt Q12884 26-760); experiment: cell-based or functional assay
[2] = biological target: T1, fibroblast activation protein (FAP) on FAP-expressing human WI-38 fibroblasts (human, UniProt Q12884 1-760); experiment: competitive FACS, WI-38 cells, vs Cy5 tracer m3; D = pIC50 <=6.0
T1 construct: also called human FAP

[3] = biological target: T2, human fibroblast activation protein (FAP) on WI-38 fibroblasts (human, UniProt Q12884 1-760); experiment: competitive FACS, WI-38 cells, Cy5-labeled peptide as competitor; B = pIC50 7.1 to 8.0
T2 construct: FAP-expressing human WI-38 fibroblasts (ECACC)

[4] = biological target: T3, Recombinant human FAP (R&D systems, #3715-SE) (human, UniProt Q12884 26-760); experiment: SPR (Biacore T200), FAP captured on anti-FAP antibody, single cycle kinetics
T3 construct: bought; in SPR captured on immobilized anti-FAP antibody MAB3715; also called rhFAP; human recombinant FAP

[5] = biological target: T3, Recombinant human FAP (R&D systems, …); experiment: cell-based or functional assay; remark: listed apart in the source
[6] = biological target: T2, human fibroblast activation protein …; experiment: competitive FACS, WI-38 cells, Cy5-labeled peptide as competitor; C = pIC50 6.1 to 7.0

pIC50 Category (Activity) [1] | pIC50 Category (FACS) [2] | pIC50 [3] | Binder | also measured
– | – | 7.1 to 8 pic50 | N4Ac-E[Ttds″][Nle]CPPTEFC-OH (linker 4-10 via 3MeBn; not fully specified (residue 1); printed as N4Ac--E(AGLU)--Ttds--Nle--[C(3MeBn)-PPTEFC]-OH, also called 3BP-4249) [N4Ac-Glu(AGLU′)-Ttds-Nle-[Cys-(3MeBn)-Pro-Pro-Thr-Glu-Phe-Cys]-OH] | pKD Category [4]: > 8 pKD
– | – | 7.1 to 8 pic50 | N4Ac-E(AGLU′)E(AGLU′)[Ttds″][Nle]CPPTEFC-OH (linker 5-11 via 3MeBn(3); reading uncertain; also: printed as N4Ac-Glu(AGLU′)-Glu(AGLU′)-Ttds-Nle-[Cys-(3MeBn)-Pro-Pro-Thr-Glu-Phe-Cys]-OH, also called 3BP-4266) [N4Ac-Glu(AGLU′)-Glu(AGLU′)-Ttds-Nle-[Cys-(3MeBn)-Pro-Pro-Thr-Glu-Phe-Cys]-OH] | –
– | – | 7.1 to 8 pic50 | Hexanoyl-CPPTQFCD[GABA]R[Ttds″][Ttds″][Ttds″]K(AF488)-NH2 (linker 1-7 via tMeBn(LuDOTA-AET); also: Lu complexed by DOTA, also called 3BP-4373) [Hex-[Cys(tMeBn(LuDOTA-AET))-Pro-Pro-Thr-Gln-Phe-Cys]-Asp-Gab-Arg-Ttds-Ttds-Ttds-Lys(AF488)-NH2] | pIC50 Category (Activity) [5]: > 8 pIC50
– | – | 7.1 to 8 pic50 | N4Ac-[γGlu][Ttds″][Nle]CPPTEFC-OH (linker 4-10 via mXylylene; SMILES CCCC[C@H](NC(=O)CCC(=O)NCCCOCCOCCOCCCNC(=O)CC[C@H](NC(=O)C(CNCCN)CNCCN)C(=O)O)C(=O)N[C@H]1CSCc2cccc(c2)CSC[C@@H](C(=O)O)NC(=O)[C@H](Cc2ccccc2)NC(=O)[C@H](CCC(=O)O)NC(=O)[C@H]([C@@H](C)O)NC(=O)[C@@H]2CCCN2C(=O)[C@@H]2CCCN2C1=O, also called 3BP-4247) [N4Ac-gGlu-Ttds-Nle-[Cys-(3MeBn)-Pro-Pro-Thr-Glu-Phe-Cys]-OH] | –
– | – | 7.1 to 8 pic50 | N4Ac-[PEG6′][Nle]CPPTEFC-OH (linker 3-9 via 3MeBn, also called 3BP-4221) [N4Ac-PEG6-Nle-[Cys-(3MeBn)-Pro-Pro-Thr-Glu-Phe-Cys]-OH] | pKD Category [4]: > 8 pKD
– | – | 7.1 to 8 pic50 | H-[Ahx][Ttds][Nle]CPPTQFCD-NH2 (linker 4-10 via tMeBn(DOTA-PP); SMILES CCCC[C@H](NC(=O)CCC(=O)NCCCOCCOCCOCCCNC(=O)CCCCCN)C(=O)N[C@H]1CSCc2cc(cc(CN3CCN(C(=O)CN4CCN(CC(=O)O)CCN(CC(=O)O)CCN(CC(=O)O)CC4)CC3)c2)CSC[C@@H](C(=O)N[C@@H](CC(=O)O)C(N)=O)NC(=O)[C@H](Cc2ccccc2)NC(=O)[C@H](CCC(N)=O)NC(=O)[C@H]([C@@H](C)O)NC(=O)[C@@H]2CCCN2C(=O)[C@@H]2CCCN2C1=O, also called 3BP-4004) [H-Ahx-Ttds-Nle-[Cys-(tMeBn(DOTA-PP))-Pro-Pro-Thr-Gln-Phe-Cys]-Asp-NH2] | pIC50 Category (Activity) [5]: > 8 pIC50
– | – | 7.1 to 8 pic50 | N4Ac-E[Ttds″][Nle]CPPTEFC-OH (linker 4-10 via 3MeBn, also called 3BP-4222) [N4Ac-Glu-Ttds-Nle-[Cys-(3MeBn)-Pro-Pro-Thr-Glu-Phe-Cys]-OH] | pKD Category [4]: > 8 pKD

The remaining lines, values behind:

Binder | pIC50 Category (Activity) [1] | pIC50 Category (FACS) [2] | pIC50 [3] | also measured
Hexanoyl-CP[Pro(trans-4-Ph)]TEFC-NH2 (linker 1-7 via mXylylene; SMILES CCCCCC(=O)N[C@H]1CSCc2cccc(c2)CSC[C@@H](C(N)=O)NC(=O)[C@H](Cc2ccccc2)NC(=O)[C@H](CCC(=O)O)NC(=O)[C@H]([C@@H](C)O)NC(=O)[C@@H]2C[C@@H](c3ccccc3)CN2C(=O)[C@@H]2CCCN2C1=O, also called 3BP-3353) [Hex-[Cys(3MeBn)-Pro-Eay-Thr-Glu-Phe-Cys]-NH2] | 6.1 pIC50 and 7 pIC50 | ≤ 6 pIC50 | – | –
Hexanoyl-CPPAQFCD-NH2 (linker 1-7 via tMeBn(DOTA-PP); SMILES CCCCCC(=O)N[C@H]1CSCc2cc(cc(CN3CCN(C(=O)CN4CCN(CC(=O)O)CCN(CC(=O)O)CCN(CC(=O)O)CC4)CC3)c2)CSC[C@@H](C(=O)N[C@@H](CC(=O)O)C(N)=O)NC(=O)[C@H](Cc2ccccc2)NC(=O)[C@H](CCC(N)=O)NC(=O)[C@H](C)NC(=O)[C@@H]2CCCN2C(=O)[C@@H]2CCCN2C1=O, also called 3BP-3745) [Hex-[Cys(tMeBn(DOTA-PP))-Pro-Pro-Ala-Gln-Phe-Cys]-Asp-NH2] | – | – | – | pIC50 [6]: 6.1 to 7 pic50
Hexanoyl-CP[Pro(4,4-F2)]TEFC-NH2 (linker 1-7 via mXylylene; SMILES CCCCCC(=O)N[C@H]1CSCc2cccc(c2)CSC[C@@H](C(N)=O)NC(=O)[C@H](Cc2ccccc2)NC(=O)[C@H](CCC(=O)O)NC(=O)[C@H]([C@@H](C)O)NC(=O)[C@@H]2CC(F)(F)CN2C(=O)[C@@H]2CCCN2C1=O, also called 3BP-3365) [Hex-[Cys(3MeBn)-Pro-4Dfp-Thr-Glu-Phe-Cys]-NH2] | 6.1 pIC50 and 7 pIC50 | ≤ 6 pIC50 | – | –
Hexanoyl-CPP[Opc]EFC-NH2 (linker 1-7 via mXylylene; SMILES CCCCCC(=O)N[C@H]1CSCc2cccc(c2)CSC[C@@H](C(N)=O)NC(=O)[C@H](Cc2ccccc2)NC(=O)[C@H](CCC(=O)O)NC(=O)[C@H](CCCNC(=O)c2cnccn2)NC(=O)[C@@H]2CCCN2C(=O)[C@@H]2CCCN2C1=O, also called 3BP-3355) [Hex-[Cys(3MeBn)-Pro-Pro-Opc-Glu-Phe-Cys]-NH2] | 6.1 pIC50 and 7 pIC50 | ≤ 6 pIC50 | – | –
Hexanoyl-CPP[Orn](Ac)EFC-NH2 (linker 1-7 via mXylylene; SMILES CCCCCC(=O)N[C@H]1CSCc2cccc(c2)CSC[C@@H](C(N)=O)NC(=O)[C@H](Cc2ccccc2)NC(=O)[C@H](CCC(=O)O)NC(=O)[C@H](CCCNC(C)=O)NC(=O)[C@@H]2CCCN2C(=O)[C@@H]2CCCN2C1=O, also called 3BP-3372) [Hex-[Cys(3MeBn)-Pro-Pro-Orn(Ac)-Glu-Phe-Cys]-NH2] | 6.1 pIC50 and 7 pIC50 | ≤ 6 pIC50 | – | –
{DOTA}-[Ttds][Nle]CPPTQFCD[Ttds]K(DOTA)-NH2 (linker 3-9 via tMeBn(DOTA-AET), also called 3BP-4392) [DOTA-Ttds-Nle-[Cys(tMeBn(DOTA-AET))-Pro-Pro-Thr-Gln-Phe-Cys]-Asp-Ttds-Lys(DOTA)-NH2] | – | – | 7.1 to 8 pic50 | –
